T1: FRMPD1, Q5SYB0
T1 sequence (Q5SYB0 52-145, limits assumed, looked up): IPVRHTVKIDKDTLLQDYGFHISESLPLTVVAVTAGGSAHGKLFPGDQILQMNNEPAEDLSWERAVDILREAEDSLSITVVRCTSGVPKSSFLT

T2: LIN7B, Q9HAP6
T2 sequence (Q9HAP6 88-185, limits assumed, looked up): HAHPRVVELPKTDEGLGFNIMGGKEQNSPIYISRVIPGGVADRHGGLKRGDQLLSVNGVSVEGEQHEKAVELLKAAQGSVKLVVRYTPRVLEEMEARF

T3: GRIP1_4, Q9Y3R0
T3 sequence (Q9Y3R0 467-571, limits assumed, looked up): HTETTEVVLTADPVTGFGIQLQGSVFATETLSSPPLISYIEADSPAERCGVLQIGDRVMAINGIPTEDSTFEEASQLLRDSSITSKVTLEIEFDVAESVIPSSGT

T4: MPP2, Q14168
T4 sequence (Q14168 180-250, limits assumed, looked up): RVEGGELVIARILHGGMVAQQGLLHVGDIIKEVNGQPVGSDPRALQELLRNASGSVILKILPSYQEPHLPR

T5: LIN7C, Q9NUP9
T5 sequence (Q9NUP9 88-185, limits assumed, looked up): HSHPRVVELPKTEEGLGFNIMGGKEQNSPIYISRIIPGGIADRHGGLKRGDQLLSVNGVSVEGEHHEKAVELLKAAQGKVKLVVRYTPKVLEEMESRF

T6: CARD11, Q9BXL7
T6 sequence (Q9BXL7 662-765, limits assumed, looked up): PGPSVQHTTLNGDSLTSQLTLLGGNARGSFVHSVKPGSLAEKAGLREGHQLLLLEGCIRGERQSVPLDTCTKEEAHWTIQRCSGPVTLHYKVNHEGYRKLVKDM

T7: PDZD2_2, O15018
T7 sequence (O15018 329-429, limits assumed, looked up): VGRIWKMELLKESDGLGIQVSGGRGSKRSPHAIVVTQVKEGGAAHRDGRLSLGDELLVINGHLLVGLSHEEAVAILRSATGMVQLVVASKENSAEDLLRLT

T8: LNX2_3, Q8N448
T8 sequence (Q8N448 463-564, limits assumed, looked up): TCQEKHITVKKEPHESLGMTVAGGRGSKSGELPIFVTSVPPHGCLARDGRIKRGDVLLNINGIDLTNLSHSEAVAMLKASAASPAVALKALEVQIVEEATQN

T9: PDZD7_3, Q9H5P4
T9 sequence (Q9H5P4 857-944, limits assumed, looked up): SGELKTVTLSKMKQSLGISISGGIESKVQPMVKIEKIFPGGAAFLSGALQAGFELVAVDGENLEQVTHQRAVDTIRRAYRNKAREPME

T10: ARHGAP21, Q5T5U3
T10 sequence (Q5T5U3 45-169, limits assumed, looked up): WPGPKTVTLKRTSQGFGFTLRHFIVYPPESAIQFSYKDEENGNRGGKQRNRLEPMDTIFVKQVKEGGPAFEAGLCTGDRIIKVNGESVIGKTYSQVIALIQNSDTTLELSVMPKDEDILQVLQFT

T11: HTRA4, P83105
T11 sequence (P83105 378-476, limits assumed, looked up): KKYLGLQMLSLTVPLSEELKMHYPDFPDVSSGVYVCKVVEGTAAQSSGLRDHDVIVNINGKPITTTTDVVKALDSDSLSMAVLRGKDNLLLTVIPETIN


What was measured:
Assay in all cases: holdup assay
Set-up in all cases: key: below the threshold = too weak to quantify, mostly under pKd 3.1 to 4
Conditions in all cases: plain residues with an end cap or a label only (N-terminal biotin on a linker: ado-ado)
Inadl_1, Q8NI35 = target: Inadl_1, Q8NI35
Chain of Inadl_1, Q8NI35 (Q8NI35 113-229): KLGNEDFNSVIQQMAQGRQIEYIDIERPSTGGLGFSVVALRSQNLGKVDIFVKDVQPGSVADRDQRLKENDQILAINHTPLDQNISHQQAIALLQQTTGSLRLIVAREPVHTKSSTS

DLG4_2, P78352 = target: DLG4_2, P78352
Chain of DLG4_2, P78352 (P78352 155-259): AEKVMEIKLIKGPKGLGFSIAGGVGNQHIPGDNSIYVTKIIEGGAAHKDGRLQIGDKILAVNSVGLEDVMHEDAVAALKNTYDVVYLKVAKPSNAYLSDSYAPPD

AHNAK1, Q09666 = target: AHNAK1, Q09666
Chain of AHNAK1, Q09666 (Q09666 4-100): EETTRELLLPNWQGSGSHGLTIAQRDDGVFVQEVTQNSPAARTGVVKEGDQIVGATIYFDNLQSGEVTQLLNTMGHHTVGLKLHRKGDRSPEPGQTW

LNX1_3, Q8TBB1 = target: LNX1_3, Q8TBB1
Chain of LNX1_3, Q8TBB1 (Q8TBB1 500-596): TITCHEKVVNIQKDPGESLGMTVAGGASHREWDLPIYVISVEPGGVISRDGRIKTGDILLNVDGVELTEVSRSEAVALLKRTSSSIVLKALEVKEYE

FRMPD1, Q5SYB0 = target: T1, FRMPD1, Q5SYB0
LIN7B, Q9HAP6 = target: T2, LIN7B, Q9HAP6
NHERF4_4, Q86UT5 = target: NHERF4_4, Q86UT5
Chain of NHERF4_4, Q86UT5 (Q86UT5 464-550): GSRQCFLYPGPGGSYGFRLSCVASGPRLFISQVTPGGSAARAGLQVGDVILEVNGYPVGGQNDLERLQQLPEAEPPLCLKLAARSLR

GRIP1_4, Q9Y3R0 = target: T3, GRIP1_4, Q9Y3R0
MAGI2_5, Q86UL8 = target: MAGI2_5, Q86UL8
Chain of MAGI2_5, Q86UL8 (Q86UL8 915-1017): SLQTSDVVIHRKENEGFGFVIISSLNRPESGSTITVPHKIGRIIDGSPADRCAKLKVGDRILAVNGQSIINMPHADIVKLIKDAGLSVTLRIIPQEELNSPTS

Inadl_9, Q8NI35 = target: Inadl_9, Q8NI35
Chain of Inadl_9, Q8NI35 (Q8NI35 1530-1615): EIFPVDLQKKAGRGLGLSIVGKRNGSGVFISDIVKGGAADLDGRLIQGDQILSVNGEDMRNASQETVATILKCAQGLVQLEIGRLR

MPP2, Q14168 = target: T4, MPP2, Q14168
Inadl_6, Q8NI35 = target: Inadl_6, Q8NI35
Chain of Inadl_6, Q8NI35 (Q8NI35 1058-1167): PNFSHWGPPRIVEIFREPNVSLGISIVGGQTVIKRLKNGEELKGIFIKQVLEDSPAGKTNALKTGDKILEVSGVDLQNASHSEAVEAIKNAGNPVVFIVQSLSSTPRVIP

Inadl_3, Q8NI35 = target: Inadl_3, Q8NI35
Chain of Inadl_3, Q8NI35 (Q8NI35 359-469): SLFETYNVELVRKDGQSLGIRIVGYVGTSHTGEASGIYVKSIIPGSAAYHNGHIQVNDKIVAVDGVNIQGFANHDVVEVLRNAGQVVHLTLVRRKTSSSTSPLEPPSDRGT

MAST2, Q6P0Q8 = target: MAST2, Q6P0Q8
Chain of MAST2, Q6P0Q8 (Q6P0Q8 1099-1202): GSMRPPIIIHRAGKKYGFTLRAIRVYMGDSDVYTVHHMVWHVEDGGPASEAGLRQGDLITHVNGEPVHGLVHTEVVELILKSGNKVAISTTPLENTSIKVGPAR

LIN7C, Q9NUP9 = target: T5, LIN7C, Q9NUP9
IL16_4, Q14005 = target: IL16_4, Q14005
Chain of IL16_4, Q14005 (Q14005 1229-1329): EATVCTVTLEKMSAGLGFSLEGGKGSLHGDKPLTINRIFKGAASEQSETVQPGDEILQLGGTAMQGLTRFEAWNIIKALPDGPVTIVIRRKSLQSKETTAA

CARD11, Q9BXL7 = target: T6, CARD11, Q9BXL7
PDZD2_2, O15018 = target: T7, PDZD2_2, O15018
LNX2_3, Q8N448 = target: T8, LNX2_3, Q8N448
FRMPD2_1, Q68DX3 = target: FRMPD2_1, Q68DX3
Chain of FRMPD2_1, Q68DX3 (Q68DX3 770-861): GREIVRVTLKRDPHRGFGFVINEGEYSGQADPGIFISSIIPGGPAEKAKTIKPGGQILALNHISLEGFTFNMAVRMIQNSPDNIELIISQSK

Inadl_8, Q8NI35 = target: Inadl_8, Q8NI35
Chain of Inadl_8, Q8NI35 (Q8NI35 1425-1530): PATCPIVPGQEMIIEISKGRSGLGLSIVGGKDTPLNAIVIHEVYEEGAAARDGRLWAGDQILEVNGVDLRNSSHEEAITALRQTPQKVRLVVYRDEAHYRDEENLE

PDZD7_3, Q9H5P4 = target: T9, PDZD7_3, Q9H5P4
ARHGAP21, Q5T5U3 = target: T10, ARHGAP21, Q5T5U3
HTRA4, P83105 = target: T11, HTRA4, P83105
NHERF4_1, Q86UT5-2 = target: NHERF4_1, Q86UT5-2
Chain of NHERF4_1, Q86UT5-2 (Q86UT5 other isoform, or with tags, fused parts or gaps): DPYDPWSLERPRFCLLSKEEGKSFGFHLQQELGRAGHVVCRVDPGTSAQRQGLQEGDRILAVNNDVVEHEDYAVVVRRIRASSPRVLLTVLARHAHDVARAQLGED

GRID2IP_1, A4D2P6 = target: GRID2IP_1, A4D2P6
Chain of GRID2IP_1, A4D2P6 (A4D2P6 1-87): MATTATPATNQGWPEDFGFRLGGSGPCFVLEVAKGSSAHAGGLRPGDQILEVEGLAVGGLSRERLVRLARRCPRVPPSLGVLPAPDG

FRMPD2_2, Q68DX3 = target: FRMPD2_2, Q68DX3
Chain of FRMPD2_2, Q68DX3 (Q68DX3 944-1038): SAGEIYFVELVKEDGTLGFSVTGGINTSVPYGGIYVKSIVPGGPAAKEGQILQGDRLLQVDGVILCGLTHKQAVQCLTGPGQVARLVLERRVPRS

Binder	pKd (Inadl_1, Q8NI35)	pKd (DLG4_2, P78352)	pKd (AHNAK1, Q09666)	pKd (LNX1_3, Q8TBB1)	pKd (FRMPD1, Q5SYB0)	pKd (LIN7B, Q9HAP6)	pKd (NHERF4_4, Q86UT5)	pKd (GRIP1_4, Q9Y3R0)	pKd (MAGI2_5, Q86UL8)	pKd (Inadl_9, Q8NI35)	pKd (MPP2, Q14168)	pKd (Inadl_6, Q8NI35)	pKd (Inadl_3, Q8NI35)	pKd (MAST2, Q6P0Q8)	pKd (LIN7C, Q9NUP9)	pKd (IL16_4, Q14005)	pKd (CARD11, Q9BXL7)	pKd (PDZD2_2, O15018)	pKd (LNX2_3, Q8N448)	pKd (FRMPD2_1, Q68DX3)	other results
ADEMICITTL [CACNA1D, Q01668]	4.33	4.02	below the threshold	below the threshold	below the threshold	3.95	3.73	below the threshold	4.76	below the threshold	below the threshold	4.62	4.53	5.76	below the threshold	below the threshold	below the threshold	3.95	below the threshold	below the threshold	pKd (Inadl_8, Q8NI35): 3.61; pKd (PDZD7_3, Q9H5P4): 5.57; pKd (ARHGAP21, Q5T5U3): 3.67; pKd (HTRA4, P83105): 4.36; pKd (NHERF4_1, Q86UT5-2): 4.52; pKd (GRID2IP_1, A4D2P6): below the threshold; pKd (FRMPD2_2, Q68DX3): 3.86
LVEEEEPMNL [HDAC7, Q8WUI4]	below the threshold	below the threshold	below the threshold	below the threshold	below the threshold	below the threshold	3.78	below the threshold	below the threshold	below the threshold	below the threshold	below the threshold	below the threshold	4.08	4.12	below the threshold	below the threshold	below the threshold	below the threshold	below the threshold	pKd (Inadl_8, Q8NI35): below the threshold; pKd (PDZD7_3, Q9H5P4): below the threshold; pKd (ARHGAP21, Q5T5U3): 3.77; pKd (HTRA4, P83105): 3.94; pKd (NHERF4_1, Q86UT5-2): 3.57; pKd (GRID2IP_1, A4D2P6): below the threshold; pKd (FRMPD2_2, Q68DX3): below the threshold
NISARRFTLC [FAM167B, Q9BTA0]	below the threshold	4.13	below the threshold	below the threshold	below the threshold	4.08	below the threshold	below the threshold	4.26	below the threshold	3.82	below the threshold	below the threshold	4.89	below the threshold	below the threshold	below the threshold	below the threshold	below the threshold	4.1	pKd (Inadl_8, Q8NI35): 3.54; pKd (PDZD7_3, Q9H5P4): 3.88; pKd (ARHGAP21, Q5T5U3): below the threshold; pKd (HTRA4, P83105): 4.55; pKd (NHERF4_1, Q86UT5-2): 4.27; pKd (GRID2IP_1, A4D2P6): below the threshold; pKd (FRMPD2_2, Q68DX3): 3.67
RSPVATATSC [DUSP5, Q16690]	below the threshold	below the threshold	below the threshold	below the threshold	below the threshold	3.68	below the threshold	below the threshold	below the threshold	below the threshold	below the threshold	below the threshold	below the threshold	4.22	below the threshold	below the threshold	below the threshold	below the threshold	below the threshold	below the threshold	pKd (Inadl_8, Q8NI35): below the threshold; pKd (PDZD7_3, Q9H5P4): 3.72; pKd (ARHGAP21, Q5T5U3): below the threshold; pKd (HTRA4, P83105): below the threshold; pKd (NHERF4_1, Q86UT5-2): 3.59; pKd (GRID2IP_1, A4D2P6): below the threshold; pKd (FRMPD2_2, Q68DX3): below the threshold
PLPPEEESWV [GAS2L2, Q8NHY3]	3.55	4.69	below the threshold	below the threshold	below the threshold	3.96	below the threshold	below the threshold	4.92	4.34	below the threshold	5.43	3.78	5.12	3.77	below the threshold	below the threshold	6.13	below the threshold	below the threshold	pKd (Inadl_8, Q8NI35): 3.8; pKd (PDZD7_3, Q9H5P4): 4.32; pKd (ARHGAP21, Q5T5U3): 4.15; pKd (HTRA4, P83105): 3.59; pKd (NHERF4_1, Q86UT5-2): below the threshold; pKd (GRID2IP_1, A4D2P6): below the threshold; pKd (FRMPD2_2, Q68DX3): 6.16
